Positions count from the first letter of the chain named. Where no end group is shown, it is not given here.
T1: AQP2 protein (UniProt P41181 1-271, limits assumed)
T1 construct: also called protein AQP2
T1 sequence (looked up): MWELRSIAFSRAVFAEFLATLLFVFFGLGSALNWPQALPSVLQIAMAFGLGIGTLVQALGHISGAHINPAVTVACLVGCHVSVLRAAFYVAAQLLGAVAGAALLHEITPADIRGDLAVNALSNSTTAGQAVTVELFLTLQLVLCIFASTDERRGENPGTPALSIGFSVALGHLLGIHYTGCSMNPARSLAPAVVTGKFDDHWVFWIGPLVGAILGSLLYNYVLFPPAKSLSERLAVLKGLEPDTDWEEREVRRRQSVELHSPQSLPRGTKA

B1: micropeptide HMMW (peptide)
peptide: MERAGVPGFSPRRSSVEAKMQSTSCSVRKSSTVTAWPAVVLLLSWGQRRGG
notes: 51-residue micropeptide encoded by a lncRNA
B2: HMMW-32A (peptide)
peptide: B1 peptide with T32A
notes: Alanine mutant of HMMW at position 32; solid-phase synthesis
B3: HMMW-21A (peptide)
peptide: B1 peptide with Q21A
notes: Alanine mutant of HMMW at position 21; solid-phase synthesis
B4: HMMW-2A (peptide)
peptide: B1 peptide with E2A
notes: Alanine mutant of HMMW at position 2; solid-phase synthesis
B5: HMMW-43A (peptide)
peptide: B1 peptide with L43A
notes: Alanine mutant of HMMW at position 43; solid-phase synthesis
B6: HMMW-3A (peptide)
peptide: B1 peptide with R3A
notes: Alanine mutant of HMMW at position 3; solid-phase synthesis
B7: HMMW-41A (peptide)
peptide: B1 peptide with L41A
notes: Alanine mutant of HMMW at position 41; solid-phase synthesis
B8: HMMW-13A (peptide)
peptide: B1 peptide with R13A
notes: Alanine mutant of HMMW at position 13; solid-phase synthesis
B9: HMMW-10A (peptide)
peptide: B1 peptide with S10A
notes: Alanine mutant of HMMW at position 10; solid-phase synthesis
B10: HMMW-48A (peptide)
peptide: B1 peptide with R48A
notes: Alanine mutant of HMMW at position 48; solid-phase synthesis
B11: HMMW-49A (peptide)
peptide: B1 peptide with R49A
notes: Alanine mutant of HMMW at position 49; solid-phase synthesis
B12: HMMW-17A (peptide)
peptide: B1 peptide with E17A
notes: Alanine mutant of HMMW at position 17; solid-phase synthesis
B13: HMMW-8A (peptide)
peptide: B1 peptide with G8A
notes: Alanine mutant of HMMW at position 8; solid-phase synthesis
B14: HMMW-30A (peptide)
peptide: B1 peptide with S30A
notes: Alanine mutant of HMMW at position 30; solid-phase synthesis
B15: HMMW-44A (peptide)
peptide: B1 peptide with S44A
notes: Alanine mutant of HMMW at position 44; solid-phase synthesis
B16: HMMW-12A (peptide)
peptide: B1 peptide with R12A
notes: Alanine mutant of HMMW at position 12; solid-phase synthesis
B17: HMMW-11A (peptide)
peptide: B1 peptide with P11A
notes: Alanine mutant of HMMW at position 11; solid-phase synthesis
B18: HMMW-31A (peptide)
peptide: B1 peptide with S31A
notes: Alanine mutant of HMMW at position 31; solid-phase synthesis
B19: HMMW-20A (peptide)
peptide: B1 peptide with M20A
notes: Alanine mutant of HMMW at position 20; solid-phase synthesis
B20: HMMW-40A (peptide)
peptide: B1 peptide with V40A
notes: Alanine mutant of HMMW at position 40; solid-phase synthesis
B21: HMMW-25A (peptide)
peptide: B1 peptide with C25A
notes: Alanine mutant of HMMW at position 25; solid-phase synthesis
B22: HMMW-28A (peptide)
peptide: B1 peptide with R28A
notes: Alanine mutant of HMMW at position 28; solid-phase synthesis
B23: HMMW-22A (peptide)
peptide: B1 peptide with S22A
notes: Alanine mutant of HMMW at position 22; solid-phase synthesis
B24: HMMW-45A (peptide)
peptide: B1 peptide with W45A
notes: Alanine mutant of HMMW at position 45; solid-phase synthesis
B25: HMMW-9A (peptide)
peptide: B1 peptide with F9A
notes: Alanine mutant of HMMW at position 9; solid-phase synthesis
B26: HMMW-19A (peptide)
peptide: B1 peptide with K19A
notes: Alanine mutant of HMMW at position 19; solid-phase synthesis
B27: HMMW-27A (peptide)
peptide: B1 peptide with V27A
notes: Alanine mutant of HMMW at position 27; solid-phase synthesis
B28: HMMW-50A (peptide)
peptide: B1 peptide with G50A
notes: Alanine mutant of HMMW at position 50; solid-phase synthesis
B29: HMMW-42A (peptide)
peptide: B1 peptide with L42A
notes: Alanine mutant of HMMW at position 42; solid-phase synthesis

System: not listed separately
Experiment: Solubility of the synthesized polypeptides
Conditions: PBS/0.1% DMSO

Row | Molecule | Solubility PBS/0.1% DMSO
1 | MERAGVPGFSPRRSSVEAKMQCSVRKSSTVTAWPAVVLLLSWGQRRGG [HMMW-8] | Soluble
2 | MERAGVPGFSPRRSSVEASTSCSVRKSSTVTAWPAVVLLLSWGQRRGG [HMMW-7] | Soluble
3 | AGVPGFSPRRSSVEAKMQSTSCSVRKSSTVTAWPAVVLLLSWGQRRGG [HMMW-1] | Soluble
4 | MERAGVPGFSPRRSSVEAKMQSTSRKSSTVTAWPAVVLLLSWGQRRGG [HMMW-9] | Soluble
5 | MERAGVPGFSPRRSSVEAKMQSTSCSVRKSSTVTAWPAVLSWGQRRGG [HMMW-14] | Soluble
6 | MERAGVPGFSPRRSSVEAKMQSTSCSVRKSSTVPAVVLLLSWGQRRGG [HMMW-12] | Soluble
7 | MERAGVPGFSPRRSSVEAKMQSTSCSVRKSSTVTAWPAVVLLLSWRGG [HMMW-16] | Soluble
8 | MERAGVPGFSPRVEAKMQSTSCSVRKSSTVTAWPAVVLLLSWGQRRGG [HMMW-5] | Soluble
9 | MERAGVSPRRSSVEAKMQSTSCSVRKSSTVTAWPAVVLLLSWGQRRGG [HMMW-3] | Soluble
10 | MERPGFSPRRSSVEAKMQSTSCSVRKSSTVTAWPAVVLLLSWGQRRGG [HMMW-2] | Soluble
11 | MERAGVPGFSPRRSSKMQSTSCSVRKSSTVTAWPAVVLLLSWGQRRGG [HMMW-6] | Soluble
12 | MERAGVPGFSPRRSSVEAKMQSTSCSVRKSSTVTAWPAVVLLGQRRGG [HMMW-15] | Soluble

Same assay, conditions: polypeptides obtained by chemical solid-phase synthesis

Row | Molecule | solubility
13 | GVPGFSPRRSSVEAKMQSTSCSVRKSSTVTAWPAVVLLLSWGQRRGG [HMMW5-51] | good solubility
14 | SPRRSSVEAKMQSTSCSVRKSSTVTAWPAVVLLLSWGQRRGG [HMMW10-51] | good solubility
15 | SVEAKMQSTSCSVRKSSTVTAWPAVVLLLSWGQRRGG [HMMW15-51] | good solubility
16 | MQSTSCSVRKSSTVTAWPAVVLLLSWGQRRGG [HMMW20-51] | good solubility

Biological target: T1, AQP2 protein
Experiment: microscale thermophoresis (MST); column head 'Affinity (µM)'
Conditions: not given
Protocol: Molecular docking simulation was performed on the micropeptide HMMW and a binding protein AQP2 thereof using MOE software, to identify predicted potential interaction sites. The docking simulation was divided into the following two groups: (1) random docking of an AQP2 homotetramer with the HMMW, without limiting a binding region; and (2) random docking of an AQP2 monomer with the HMMW, without limiting a binding region. Interaction sites obtained from the above two docking methods were integrated and analyzed, and all possible binding amino acids were selected as potential key sites for alanine (Ala) mutations. Due to alanine being the smallest chiral amino acid, the impact of a specific amino acid on an overall protein biological activity can be distinguished by systematically and sequentially substituting each amino acid in a sequence with Ala. The predicted polypeptides were obtained by solid-phase synthesis, and the affinity of different mutated polypeptides to the AQP2 protein was detected by microscale thermophoresis (MST) assay.

Row | Molecule | Kd [µM]
17 | B1 | 3.07
18 | B2 | 2.01
19 | B3 | 7.64
20 | B4 | 2.5
21 | B5 | 0.36
22 | B6 | 2.8
23 | B7 | 4.32
24 | B8 | 6.61
25 | B9 | 4.03
26 | B10 | 11.6
27 | B11 | 20.8
28 | B12 | 3.93
29 | B13 | 14.8
30 | B14 | 2.23
31 | B15 | 5.23
32 | B16 | 1.12
33 | B17 | 2.33
34 | B18 | 3.06
35 | B19 | 2.59
36 | B20 | 1.19
37 | B21 | 1.97
38 | B22 | 2.27
39 | B23 | 3.21
40 | B24 | 3.24
41 | B25 | 3.95
42 | B26 | 5.11
43 | B27 | 2.39
44 | B28 | 0.55
45 | B29 | 0.25
